In patent US20230235040A1 (ALMIRALL S A, published 2023):
Numbering of substitutions follows the chain as printed. Blank lines part the entries; values can stand above or below the binder they belong to.

Key:
[1] = biological target: T1, cy-IL-36α (cynomolgus monkey IL-36α, K6-F158) (cynomolgus monkey, UniProt Q9UHA7 14-158 (human entry)); experiment: ELISA on coated cy- and hu-IL-36α, yeast Fab supernatant; ratio of OD450
T1 construct: Purification tag cleaved off
T1 chain: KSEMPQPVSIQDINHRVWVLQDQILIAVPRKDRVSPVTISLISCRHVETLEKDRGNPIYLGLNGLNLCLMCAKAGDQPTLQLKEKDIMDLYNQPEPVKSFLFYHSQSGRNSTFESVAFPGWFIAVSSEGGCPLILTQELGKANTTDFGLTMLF
Protocol: (§1) Cell supernatants from yeast clones of interest were tested for binding to human IL-36 by ELISA as described above. To compare the binding of these supernatants to human and cynomolgus monkey IL-36, IL-36 proteins were coated at 2.5 μg/mL on 96-well Nunc MaxiSorp plates (Thermo Fisher) and the plates blocked with 5% goat serum in PBS. Yeast supernatants were diluted 1:1 with PBST containing 1% w/v BSA and added to the ELISA plates for 1-1.5 hours with agitation. Bound Fab was detected by incubating the plates with F(ab′)2-HRP (Jackson ImmunoResearch). The ELISAs were developed for 3-10 minutes by addition of 50 μL/well of tetramethylbenzidine (TMB) microwell peroxidase substrate (Scytek Laboratories, Inc., Logan, Utah, USA) and enzymatic color development was stopped by acidification with 50 µL/well of 2 N H₂SO₄ (Sigma-Aldrich Corporation, St. Louis, Mo., USA). The optical density of the samples at a wavelength of 450 nm (OD450) was analyzed with a SpectraMax i3X plate reader (Molecular Devices LLC, San Jose, Calif., USA). To estimate the relative affinity of each clone for cynomolgus monkey IL-36 and human IL-36 in this assay, a ratio of OD450 (OD450_cyIL-36/OD450_huIL-36) was calculated for each clone and IL-36 cytokine.

[2] = biological target: T2, cy-IL-36γ (cynomolgus monkey IL-36γ, S18-K168) (cynomolgus monkey, UniProt Q9NZH8 18-167 (human entry)); experiment: ELISA on coated cy- and hu-IL-36γ, yeast Fab supernatant; ratio of OD450
T2 construct: Purification tag cleaved off
T2 chain: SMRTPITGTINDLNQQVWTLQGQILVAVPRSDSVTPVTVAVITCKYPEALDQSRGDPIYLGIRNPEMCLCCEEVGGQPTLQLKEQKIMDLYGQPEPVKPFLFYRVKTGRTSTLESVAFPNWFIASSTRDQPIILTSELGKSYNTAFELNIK
Protocol: as §1

[3] = biological target: T3, hu-IL-36γ (human IL-36γ, N-terminally truncated active form S18-D169) (human, UniProt Q9NZH8 18-169); experiment: ELISA, yeast Fab supernatant, anti-Fab-HRP
T3 construct: Purification tag cleaved off; Biotinylated where captured; also called hu-IL-36g
T3 sequence: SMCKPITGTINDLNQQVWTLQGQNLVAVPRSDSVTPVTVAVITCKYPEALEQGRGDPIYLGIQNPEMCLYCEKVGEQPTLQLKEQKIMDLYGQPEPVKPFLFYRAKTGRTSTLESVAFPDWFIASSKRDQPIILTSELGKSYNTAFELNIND

[4] = biological target: T4, hu-IL-36α (human IL-36α, N-terminally truncated active form K6-F158) (human, UniProt Q9UHA7 6-158); experiment: ELISA, yeast Fab supernatant, anti-Fab-HRP
T4 construct: Purification tag cleaved off; Biotinylated where captured (SPR, some ELISAs); also called hu-IL-36a
T4 sequence: T1 chain with S2I, E3D, M4T, P7Q, V8G, I24T, V34M, S40A, A74V

[5] = biological target: T3, hu-IL-36γ (human IL-36γ, N-terminally …); experiment: cell-based or functional assay
[6] = biological target: T4, hu-IL-36α (human IL-36α, N-terminally …); experiment: cell-based or functional assay
[7] = biological target: T5, hu-IL-36β (human IL-36β, N-terminally truncated active form R5-E157) (human); experiment: SPR (Biacore), purified Fab, biotinylated hu-IL-36β captured
T5 construct: Purification tag cleaved off; Biotinylated where captured; also called hu-IL-36b
T5 chain: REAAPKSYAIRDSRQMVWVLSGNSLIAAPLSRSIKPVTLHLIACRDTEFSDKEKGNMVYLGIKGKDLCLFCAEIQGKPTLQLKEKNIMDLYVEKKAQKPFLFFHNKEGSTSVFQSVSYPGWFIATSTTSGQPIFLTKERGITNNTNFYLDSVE

[8] = biological target: T5, hu-IL-36β (human IL-36β, N-terminally …); experiment: SPR (Biacore 8K), biotinylated hu-IL-36β captured on CAP chip, Fab injected, 37°C
Protocol: Briefly, a 1:4 dilution of Biotin CAPture Reagent (GE) into HBS-EP buffer (0.01 M HEPES pH 7.4, 0.15 M NaCl, 3 mM EDTA, 0.005% Surfactant P20) was applied to a CAP sensor chip at 2 uL/min flow rate. For kinetics measurements, 6 nM biotinylated human IL-36β was captured at 10 uL/min to achieve ˜50 response units in the second flow cell (FC2). FC1 was kept as a reference. […] The sensorgram was recorded and subject to reference and buffer subtraction before evaluating by BIACORE® 8K Evaluation Software (version 1.1.1.7442). Association rates (kₒₙ) and dissociation rates (koff) were calculated using a simple one-to-one Langmuir binding model.

[9] = biological target: T5, hu-IL-36β (human IL-36β, N-terminally …); experiment: cell-based or functional assay
[10] = biological target: T5, hu-IL-36β (human IL-36β, N-terminally …); experiment: phage competition ELISA: Fab on phage, soluble hu-IL-36β titrated against coated hu-IL-36β
Protocol: Selected phages with top binding signal were purified to perform phage competition ELISA. The optimal phage concentration was incubated with serially-diluted human IL-36β in ELISA buffer (0.5% BSA and 0.05% TWEEN©20 in PBS) in NUNC F plate for two hours. 80 μl of the mixture was transferred to human IL-36β coated wells for 15 min to capture unbound phage. The plate was washed with wash buffer (0.05% TWEEN©20 in PBS), and HRP-conjugated anti-M13 antibody (Sino biological, Cat #11973-MM05-H-50) was added in ELISA buffer for 30 min. The plate was incubated at room temperature for one hour with agitation, washed six times with wash buffer and developed for 15 minutes by addition of 100 μL/well of 1 Step Turbo™ B substrate (ThermoFisher, Cat #34022). The enzymatic reaction was stopped using 50 μL/well of 2N H₂SO₄. Plates were analyzed using a Perkin Elmer plate reader (Envision 2103 multilabel reader) at 450 nm. The absorbance at 450 nm was plotted as a function of antigen concentration in solution to determine phage IC₅₀. […] Real affinities for purified Fab molecules for the phage variants were also measured using Biacore (method described in detail in section E below).

[11] = biological target: T5, hu-IL-36β (human IL-36β, N-terminally …); experiment: cell-based or functional assay

ELISA OD450cyIL-36/OD450hu-IL-36 [1]: 0.6 ratio
ELISA OD450cyIL-36/OD450hu-IL-36 [2]: 1.3 ratio
ELISA OD450 [3]: 2.43 OD450
ELISA OD450 [4]: 0.94 OD450
% Inhibition, HEK-Blue IL-36R SEAP reporter assay [5]: 31%
% Inhibition, HEK-Blue IL-36R SEAP reporter assay [6]: 70%
B1: mAb1.0 Fab (yeast clone culture supernatant) (Fab, V domains shown)
VH: QVQLVESGGGVVQPGRSLRLSCAASGFSFSAYAMHWVRQAPGKGLEWVAVISYDGTNEYYADSVKGRFTISRDNSKNTLYLQMNSLRAEDTAVYYCARGIRIFTSYFDSWGQGTLVTVSS
VL: QSVLTQPPSVSGAPGQRVTISCTGSSSNIGAHYDVHWYQQLPGTAPKLLIYSNNNRPSGVPDRFSGSKSGTSASLAITGLQAEDEADYYCQSYDYSLRGYVFGGGTKLTVL
notes: Human Fab secreted by the yeast clone, not purified

ELISA OD450cyIL-36/OD450hu-IL-36 [1]: 0.5 ratio
ELISA OD450cyIL-36/OD450hu-IL-36 [2]: 1.2 ratio
ELISA OD450 [3]: 2.3 OD450
ELISA OD450 [4]: 2.16 OD450
% Inhibition, HEK-Blue IL-36R SEAP reporter assay [5]: 57%
% Inhibition, HEK-Blue IL-36R SEAP reporter assay [6]: 91%
B2: mAb4.0 Fab (yeast clone culture supernatant) (Fab, V domains shown)
VH: QLQLQESGPGLVKPSETLSLTCTVSGGSIGSRSYYWGWIRQPPGKGLEWIGSIHYSGTTYYNPSLKSRVTISVDTSKNQFSLKLSSVTAADTAVYYCARVAPSYPRVFDYWGQGTLVTVSS
VL: B1 VL with H32G, S52G, N54R, G99V
notes: as for B1

ELISA OD450cyIL-36/OD450hu-IL-36 [1]: 0.5 ratio
ELISA OD450cyIL-36/OD450hu-IL-36 [2]: 1 ratio
ELISA OD450 [3]: 2.08 OD450
ELISA OD450 [4]: 2.05 OD450
% Inhibition, HEK-Blue IL-36R SEAP reporter assay [5]: 75%
% Inhibition, HEK-Blue IL-36R SEAP reporter assay [6]: 75%
B5: mAb5.0 Fab (yeast clone culture supernatant) (Fab, V domains shown)
VH: EVQLLESGGGLVQPGGSLRLSCAASGFTFSTYAMSWVRQAPGKGLEWVSGISGGSGYTYYADSVKGRFTISRDNSKNTLYLQMNSLRAEDTAVYYCARVVTYRDPPASFDYWGQGTLVTVSS
VL: B1 VL with S52G, N54D, R98K, G99A
notes: as for B1

Kd [7]: 1.62 nM
IC50, IL-36-stimulated IL-8 secretion by HaCat cells [9]: 1.31 nM
IC50 [10]: 0.49 nM
B7: mAb6_2.3 Fab (Fab, V domains shown)
VH: ELQLQESGPGLVKPSETLSLTCTVSGGSITASNYYWGWIRQPPGKGLEWIGSIDYTGSTYYNTSLKSRVTISVDTSKNQFSLKLSSVTAADTAVYYCATGKYYETYLGFDVWGQGTLVTVSS
VL: B1 VL with Q1E, S52G, N54D, R98S
notes: Purified Fab (Biacore, HaCat assay)

ELISA OD450cyIL-36/OD450hu-IL-36 [1]: 0.7 ratio
ELISA OD450cyIL-36/OD450hu-IL-36 [2]: 1.2 ratio
ELISA OD450 [3]: 2.5 OD450
ELISA OD450 [4]: 2.53 OD450
% Inhibition, HEK-Blue IL-36R SEAP reporter assay [5]: 89%
% Inhibition, HEK-Blue IL-36R SEAP reporter assay [6]: 91%
B9: mAb2.0 Fab (yeast clone culture supernatant) (Fab, V domains shown)
VH: QLQLQESGPGLVKPSETLSLTCTVSGGSISTSSYYWGWIRQPPGKGLEWIGSIYYTGNTYYNPSLKSRVTISVDTSKNQFSLKLSSVTAADTAVYYCARVRYGVGVPRYFDPWGQGTLVTVSS
VL: B1 VL with S52G, N54D, R98S
notes: as for B1

Second part, the binder before the results:

B3: mAb6_2 Fab (Fab, V domains shown)
VH: B7 VH with A31S, T63P, T99R
VL: B1 VL with Q1E, S52G, N54D, R98S
apparent Kd (pooled screen) [7]: 40.1 nM
apparent Kd (pooled screen) [8]: 14.7 nM
apparent koff (pooled screen) [8]: 0.00128 s⁻¹
apparent kon (pooled screen) [8]: 87200 M⁻¹ s⁻¹
IC50, IL-36-stimulated IL-8 secretion by HaCat cells [9]: 3.19 nM
apparent IC50 (pooled screen) [10]: 8.57 nM

B4: mAb3.0 Fab (yeast clone culture supernatant) (Fab, V domains shown)
VH: B9 VH with T31S, S32T, Y54H, T56S, R101H, V104G, G105Y, V106I, Y109R, P112H
VL: B1 VL with H32G, S52G, N54T
notes: as for B1
ELISA OD450cyIL-36/OD450hu-IL-36 [1]: 0.5 ratio
ELISA OD450cyIL-36/OD450hu-IL-36 [2]: 1 ratio
ELISA OD450 [3]: 2.11 OD450
ELISA OD450 [4]: 1.63 OD450
% Inhibition, HEK-Blue IL-36R SEAP reporter assay [5]: 64%
% Inhibition, HEK-Blue IL-36R SEAP reporter assay [6]: 40%

B6: mAb6_2.4 Fab (Fab, V domains shown)
VH: B7 VH with T63P
VL: B1 VL with Q1E, S52G, N54D, R98S
notes: Purified Fab
Kd [7]: 1.05 nM
IC50, IL-36-stimulated IL-8 secretion by HaCat cells [9]: 0.13 nM

B8: mAb6_2.2 Fab (Fab, V domains shown)
VH: B7 VH with A31S, Y34A, Y60A, T63P, T99H
VL: B1 VL with Q1E, S52G, N54D, R98S
notes: as for B7
Kd [7]: 2.55 nM
IC50, IL-36-stimulated IL-8 secretion by HaCat cells [9]: 2.22 nM
IC50 [10]: 1.04 nM

B10: mAb6_2.1 Fab (Fab, V domains shown)
VH: B7 VH with A31S, S32T, S52N, T63A
VL: B1 VL with Q1E, S52G, N54D, R98S
notes: as for B7
Kd [7]: 3.5 nM
IC50, IL-36-stimulated IL-8 secretion by HaCat cells [9]: 1.64 nM
IC50 [10]: 0.77 nM

B11: mAb7.0 recombinant human IgG1 (antibody, V domains shown)
VH: QVQLVESGGGVVQPGRSLRLSCAASGFTFSSYGMHWVRQAPGKGLEWVAVISYGGSERYYADSVKGRFTISRDNSKNTLYLQMNSLRAEDTAVYYCAREPWYSSRGWTGYGFDVWGQGTLVTVSS
VL: EIVLTQSPGTLSLSPGERATLSCRASQSVSSNYLAWYQQKPGQAPKLLIYSASSLQSGVPSRFSGSGSGTDFTLTISSLQPEDFATYYCQQTYSYPPTFGQGTKVEIK
IC50, HEK-Blue IL-36R SEAP reporter assay [11]: 1.4 nM

B12: mAb8.0 recombinant human IgG1 (antibody, V domains shown)
VH: QVQLVQSGAEVKKPGSSVKVSCKASGGTFSNYAISWVRQAPGQGLEWMGGILPILGTVDYAQKFQGRVTITADESTSTAYMELSSLRSEDTAVYYCAREPWYRLGAFDVWGQGTLVTVSS
VL: DIQMTQSPSSLSASVGDRVTITCRASQTIYKYLNWYQQKPGKAPKLLIYAASSLQSGVPSRFSGSGSGTDFTLTISSLQPEDFATYYCQQYSSIPYTFGQGTKVEIK
IC50, HEK-Blue IL-36R SEAP reporter assay [11]: 0.34 nM
